Measurements as given in US20200255516A1 (JIANGSU HENGRUI MEDICINE, published 2020).

T1: TIGIT fusion protein with Fc or mFc tag (human, UniProt Q495A1 22-141)
T1 construct: extracellular domain; also called TIGIT-Fc; TIGIT-mFc
T1 sequence (looked up): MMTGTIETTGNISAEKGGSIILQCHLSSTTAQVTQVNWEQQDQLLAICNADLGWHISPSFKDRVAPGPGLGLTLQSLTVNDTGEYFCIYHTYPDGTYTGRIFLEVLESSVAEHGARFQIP

T2: human TIGIT on SEB-activated human PBMC (human, UniProt Q495A1)
T2 construct: native, on the cell surface
T2 sequence (receptor chain, looked up): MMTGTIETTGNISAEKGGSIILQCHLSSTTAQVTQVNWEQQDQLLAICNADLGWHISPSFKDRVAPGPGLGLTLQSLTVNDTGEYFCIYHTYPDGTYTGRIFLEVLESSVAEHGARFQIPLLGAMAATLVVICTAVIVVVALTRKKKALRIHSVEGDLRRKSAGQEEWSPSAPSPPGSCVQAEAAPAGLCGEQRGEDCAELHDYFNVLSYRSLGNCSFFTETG

T3: human TIGIT (Sinobiological Co., Ltd., Cat. 10917-H08-H) (human, UniProt Q495A1 22-141)
T3 construct: also called huTIGIT; TIGIT-His
T3 sequence (looked up): T1 sequence (looked up)

T4: Full-length human TIGIT on CHO cells overexpressing TIGIT (human, UniProt Q495A1 22-244)
T4 construct: also called TIGIT-CHO cells; CHO cells overexpressing human TIGIT
T4 sequence: T2 sequence (receptor chain, looked up)

B1: h1709-10 (antibody, human IgG4 S228P, kappa, V domains shown)
VH: EVQLVQSGAEVKKPGASVKVSCKASGYTFTDYYMHWVRQAPGQGLEWMGLVYPYNDNTGYNRKFKGRVTMTVDTSTSTVYMELNSLRSEDTAVYYCARGGPSNWNYFDYWGQGTLVTVSS
VL: DIQMTQSPSSLSASVGDRVTITCKASQNVVTAVAWYQQKPGKSPKLLIYSASNRYTGVPDRFSGSGSGTDFTLTISSLQPEDFATYFCQQYTLYPLTFGGGTKVEIKR
notes: also called humanized TIGIT antibody h1709-10
B2: h1710-01 (antibody, human IgG4 S228P, kappa, V domains shown)
VH: EVQLVQSGAEVKKPGASVKVSCKASGYTFTNYYMHWVRQAPGQGLEWMGRIDPTSGATKYNDNFKGRVTMTRDTSTSTVYMELSSLRSEDTAVYYCAREGGFGYYFDYWGQGTTVTVSS
VL: DIQMTQSPSSLSASVGDRVTITCRTSENIFTYLAWYQQKPGKAPKLLIYNAKTFAEGVPSRFSGSGSGTDFTLTISSLQPEDFATYYCQHHYGIPLPFGQGTKLEIKR
notes: also called humanized TIGIT antibody h1710-01
B3: h1711-04 (antibody, human IgG4 S228P, kappa, V domains shown)
VH: EVQLVQSGAEVKKPGSSVKVSCKASGYTFSNYWIGWVRQAPGQGLEWIGDIYPGGAYTNYNEKFKDRVTITADKSTSTAYMEFSSLRSEDTAVYYCTRGDYYDSSGRAMDYWGQGTLVTVSS
VL: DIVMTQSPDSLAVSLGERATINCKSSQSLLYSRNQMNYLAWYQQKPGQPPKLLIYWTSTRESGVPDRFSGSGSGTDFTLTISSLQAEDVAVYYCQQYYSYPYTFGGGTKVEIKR
notes: also called humanized TIGIT antibody h1711-04

Experiments:
[1] = target: T1, TIGIT fusion protein with Fc or mFc tag; test: blocking cell ELISA: TIGIT-hFc or TIGIT-mFc (0.2 ug/ml) pre-mixed with the antibody, added to fixed CHO cells overexpressing CD155 (blocked ligand), OD450
[2] = target: T2, human TIGIT on SEB-activated human PBMC; test: flow cytometry on SEB-activated human PBMC, PE anti-human IgG, MFI
[3] = target: T3, human TIGIT (Sinobiological Co., Ltd., …); test: SPR (Biacore T200), antibody captured via Protein A, huTIGIT in mobile phase, 1:1 Langmuir fit
[4] = target: T5, cynoTIGIT-mFc (fusion protein of cynoTIGIT extracellular domain and mouse IgG2a Fc fragment) (cynomolgus); test: SPR (Biacore T200), antibody held by Fc affinity capture, cynoTIGIT-mFc in mobile phase, 1:1 Langmuir fit
T5 construct: also called monkey TIGIT; cynomolgus TIGIT-mFc fusion protein
T5 sequence (chain, as listed by the source limits assumed): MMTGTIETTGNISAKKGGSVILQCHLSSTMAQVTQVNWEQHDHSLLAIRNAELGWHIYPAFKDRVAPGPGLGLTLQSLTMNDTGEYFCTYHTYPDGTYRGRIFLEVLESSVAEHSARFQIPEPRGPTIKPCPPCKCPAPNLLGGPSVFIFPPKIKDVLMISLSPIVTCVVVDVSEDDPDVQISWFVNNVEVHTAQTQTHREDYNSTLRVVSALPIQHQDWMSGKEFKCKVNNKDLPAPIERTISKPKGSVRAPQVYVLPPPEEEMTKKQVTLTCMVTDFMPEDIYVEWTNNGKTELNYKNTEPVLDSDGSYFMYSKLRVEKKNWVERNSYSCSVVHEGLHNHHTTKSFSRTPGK

[5] = target: T5, cynoTIGIT-mFc (fusion protein of …); test: ELISA: cynomolgus TIGIT-Fc or TIGIT-mFc captured by coated anti-Fc antibody, HRP secondary antibody, OD450
[6] = target: T4, Full-length human TIGIT on CHO cells …; test: FACS blocking assay on TIGIT-CHO cells; competitor CF633-labeled CD155-Fc at 2 ug/ml
[7] = target: T1, TIGIT fusion protein with Fc or mFc tag; test: ELISA: human TIGIT-Fc or TIGIT-mFc captured by coated anti-Fc antibody, HRP secondary antibody, OD450
[8] = target: T1, TIGIT fusion protein with Fc or mFc tag; test: HTRF blocking assay: TIGIT-Fc or TIGIT-mFc with biotinylated CD155 as the blocked ligand, ratio 665/620
[9] = target: T4, Full-length human TIGIT on CHO cells …; test: cell ELISA on fixed CHO cells overexpressing human TIGIT
[10] = target: T1, TIGIT fusion protein with Fc or mFc tag; test: FACS blocking assay: TIGIT-mFc pre-incubated with the antibody, added to CHO cells overexpressing CD112 (blocked ligand), PE anti-mouse IgG, MFI
[11] = target: T3, human TIGIT (Sinobiological Co., Ltd., …); test: SPR (Biacore), captured antibody, TIGIT-His as analyte

Binder	IC50 (read off the curve) [1] [nM]	EC50 (read off the curve) [2] [nM]	Kd [3] [nM]	koff [3] [s⁻¹]	kon [3] [M⁻¹ s⁻¹]	Kd [4] [nM]	koff [4] [s⁻¹]	kon [4] [M⁻¹ s⁻¹]	EC50 (read off the curve) [5] [nM]	IC50 [6] [nM]	EC50 (read off the curve) [7] [nM]	IC50 (read off the curve) [8] [nM]	EC50 [9] [nM]	IC50 (read off the curve) [10] [nM]	Kd [11] [nM]	koff [11] [s⁻¹]	kon [11] [M⁻¹ s⁻¹]
B1	~1	~0.3	0.104	0.000259	2.49e+06	0.3	0.000415	1.39e+06	~0.1	0.427	~0.1	~3	0.0568	~5	–	–	–
B2	~1	~0.3	0.147	0.00024	1.63e+06	0.322	0.000371	1.15e+06	~0.1	0.468	~0.1	~2	0.0769	~5	–	–	–
B3	~1	~0.3	0.238	0.000436	1.83e+06	0.129	0.000317	2.46e+06	~0.1	0.57	~0.1	~3	0.0587	~5	0.21	0.000442	2.1e+06
